Data on 3 molecules can be found in US20250263441A1 (published 2025).

In general, Kd refers to a measure of binding affinity in units of concentration. Low values mean higher affinity, high ones lower affinity.

This assay concerns the target Toll-Like Receptor 2 (TLR2). Put plainly: SPR. (Surface plasmon resonance follows binding to a sensor surface in real time, without labels.)

Sequence of Toll-Like Receptor 2 (TLR2) (chain, as listed by the source): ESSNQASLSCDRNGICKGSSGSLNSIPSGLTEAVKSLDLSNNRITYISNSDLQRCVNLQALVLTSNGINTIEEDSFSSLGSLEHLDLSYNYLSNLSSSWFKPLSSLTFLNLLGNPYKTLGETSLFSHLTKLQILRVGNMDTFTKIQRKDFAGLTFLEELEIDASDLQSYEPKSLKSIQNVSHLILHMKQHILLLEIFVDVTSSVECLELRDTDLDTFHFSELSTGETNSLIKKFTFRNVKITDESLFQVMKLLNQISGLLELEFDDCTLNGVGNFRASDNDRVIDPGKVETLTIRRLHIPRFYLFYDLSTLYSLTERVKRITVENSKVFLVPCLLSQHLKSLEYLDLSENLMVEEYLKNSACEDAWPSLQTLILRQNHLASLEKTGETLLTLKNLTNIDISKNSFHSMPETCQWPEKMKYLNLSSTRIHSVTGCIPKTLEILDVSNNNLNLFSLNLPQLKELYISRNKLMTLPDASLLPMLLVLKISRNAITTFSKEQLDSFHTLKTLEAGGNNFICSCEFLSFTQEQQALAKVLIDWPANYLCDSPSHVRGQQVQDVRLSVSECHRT

Turning to GIFKKITGKCFKWIK (Chemically synthesized variant of AMP5) [AMP5-L10C], binding was put at a Kd of 834 nM.

Consider GIFKKIAGKLFKWIK (Chemically synthesized variant of AMP5) [AMP5-T7A], for which the Kd came to 373 nM.

With GIFKKITGKLFKWIK (also called polypeptide 1) [AMP5], the affinity, expressed as Kd, was 543 nM.
